According to paper PMC4420465, “A Novel Type II NAD^+-Specific Isocitrate Dehydrogenase from the Marine Bacterium Congregibacter litoralis KT71” (PLoS ONE, 2015):
Substitutions are numbered along the chain they refer to. In names and notes the source's numbering stands.

B1: ClIDH (Congregibacter litoralis KT71) (protein)
chain: MSNKIKVEKPLVILHGDEMAQIAFERLLEQFVTSRLDINLLEVDLSAEKRFTTNGQVVLDAIDALIEHGVGIKNAGMTVNRSQLDELLAKYPDVKESELDKLATKSPNGAIRKGIGGNITREDIEFQNLTSVRPDWIDRDIEVDTMDSGGLDFSYSELSNATGVAKVMFVGSSGDPVELHRRTLKKGDPWMLANNSLEEVEAWAHRFFQRALDEKRDIYLGLKDTVVPGYDGVMRAAIEAIYERDYKEKVAAAGLKYHYELIDAQAARIVSNPPERALWGVPDNVSGMKLYKLVQQLKHYGLPERKANVSISRMSAGGGDQYGSYNTPAPEDGIIKVVVDGVEKHARMVKANDPILFMSNDRDAIKDWVKQVFKDASINKKEVYFGLKREFVNYDEVYSSIILEIRKELAALDTPPPSFMIMRPSRQLSKMICDPPRWGLYPAQNLDGDIFSDISAALGGSLATASSVIKSKDGTLLYEAPHGTAHDLYLRYLETDGKEAHFNSSALIFAVANALEEMARREENEALADYAQRLKAALIDTVAQGTITGDLKGKTLDPESENVVDMYGFLDAIEANLNAS
notes: full length 580 residues, 6xHis tag (pET-28b, upstream, kept), E. coli Rosetta (DE3), about 64 kDa subunit, homohexamer
B2: ClIDH (Congregibacter litoralis KT71; D487R/L488H) (protein)
chain: B1 chain with D487R, L488H
notes: as for B1

Columns and labels:
[1] = target: Congregibacter litoralis KT71 NAD+-specific isocitrate dehydrogenase (recombinant ClIDH) (Congregibacter litoralis KT71); experiment: AUC; sedimentation velocity, Beckman XL-A, 20°C, 116,000 g, continuous c(s) distribution; protein of more than 90% purity after gel filtration; single run
[2] = target: Congregibacter litoralis KT71 NAD+-specific isocitrate dehydrogenase (recombinant ClIDH) (Congregibacter litoralis KT71); experiment: SEC; gel filtration on a 10/300 Superdex 200 column, 0.05 M potassium phosphate buffer (pH 7.0), 0.15 M NaCl, 0.01% sodium azide; calibrated with ovalbumin, conalbumin, aldolase, ferritin, thyroglobulin
purified protein [3] = substrate: O=C(O)CC(C(=O)O)C(O)C(=O)O; experiment: purified protein; type: biochemical, Congregibacter litoralis; settings: Mn2+ 2 mM, NAD+ 1 mM, 35 mM Tris-HCl pH 7.5, 25°C
purified protein [4] = substrate: NC(=O)c1ccc[n+]([C@@H]2O[C@H](COP(=O)(O)OP(=O)(O)OC[C@H]3O[C@@H](n4cnc5c(N)ncnc54)[C@H](O)[C@@H]3O)[C@@H](O)[C@H]2O)c1; experiment: purified protein; type: biochemical, Congregibacter litoralis; settings: Mn2+ 2 mM, DL-isocitrate 1.5 mM, 35 mM Tris-HCl pH 7.5, 25°C, varied: cofactor
purified protein [5] = substrate: NC(=O)c1ccc[n+]([C@@H]2O[C@H](COP(=O)(O)OP(=O)(O)OC[C@H]3O[C@@H](n4cnc5c(N)ncnc54)[C@H](OP(=O)(O)O)[C@@H]3O)[C@@H](O)[C@H]2O)c1; experiment: purified protein; type: biochemical, Congregibacter litoralis; settings: Mn2+ 2 mM, DL-isocitrate 1.5 mM, 35 mM Tris-HCl pH 7.5, 25°C, varied: cofactor

stoichiometry N [1]	stoichiometry N [2]	Molecule	Km (purified protein [3])	Km (purified protein [4])	kcat (purified protein [4])	kcat/Km (purified protein [4])	Km (purified protein [5])	kcat (purified protein [5])	kcat/Km (purified protein [5])
6	6	Congregibacter litoralis KT71 NAD+-specific isocitrate dehydrogenase (recombinant ClIDH) (enzyme)							
		B1	90.8 µM	309.1 ± 11.2 µM	84.7 s⁻¹	270000 M⁻¹ s⁻¹			
		B2		663.8 ± 48.6 µM	9.7 s⁻¹	15000 M⁻¹ s⁻¹	156.7 ± 4.8 µM	55.1 s⁻¹	350000 M⁻¹ s⁻¹
